Assay results: the supplement of paper PMC9112550, “Optimization of the antimicrobial peptide Bac7 by deep mutational scanning” (BMC Biology, 2022)

test system: Escherichia coli TOP10; assay: shrunken log2 fold change of peptide-encoding DNA abundance (4.5 h post-induction vs induction); higher = less antimicrobial activity (less host growth inhibition); conditions: time post-induction: 4.5 h; library: site-saturation at positions 5, 18, 19, 20
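Also: peptides expressed intracellularly from a pBAD plasmid library in pooled LB shake-flask culture, induced with 0.3% L-arabinose, DNA abundance read by NGS, three biological replicates, DESeq2 with apeglm shrinkage.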

Row | Sequence | shrunken log2 fold change
1 | RRIRGRPPRLPRPRPRPFYAPRP | 0.0161
2 | RRIRGRPPRLPRPRPRPFYCPRP | -0.0638
3 | RRIRGRPPRLPRPRPRPFYGPRP | -0.0443
4 | RRIRGRPPRLPRPRPRPFYNPRP | 0.0314
5 | RRIRGRPPRLPRPRPRPFYTPRP | -0.173
6 | RRIRGRPPRLPRPRPRPFYYPRP | 0.07
7 | RRIRGRPPRLPRPRPRPGALPRP | 0.723
8 | RRIRGRPPRLPRPRPRPGCSPRP | 0.867
9 | RRIRGRPPRLPRPRPRPGCYPRP | 0.345
10 | RRIRGRPPRLPRPRPRPGDEPRP | 1.81
11 | RRIRGRPPRLPRPRPRPGEPPRP | 0.276
12 | RRIRGRPPRLPRPRPRPGFAPRP | 0.831
13 | RRIRGRPPRLPRPRPRPGFEPRP | 0.813
14 | RRIRGRPPRLPRPRPRPGGGPRP | 1.33
15 | RRIRGRPPRLPRPRPRPGGYPRP | 0.505
16 | RRIRGRPPRLPRPRPRPGHHPRP | 0.16
17 | RRIRGRPPRLPRPRPRPGHMPRP | -0.129
18 | RRIRGRPPRLPRPRPRPGKTPRP | 0.0643
19 | RRIRGRPPRLPRPRPRPGMGPRP | 0.963
20 | RRIRGRPPRLPRPRPRPGMLPRP | 0.498
21 | RRIRGRPPRLPRPRPRPGNWPRP | 0.541
22 | RRIRGRPPRLPRPRPRPGPDPRP | 0.62
23 | RRIRGRPPRLPRPRPRPGPEPRP | 0.954
24 | RRIRGRPPRLPRPRPRPGQIPRP | 0.352
25 | RRIRGRPPRLPRPRPRPGQWPRP | 0.356

Row | Sequence | shrunken log2 fold change
26 | RRIRGRPPRLPRPRPRPGRHPRP | 0.314
27 | RRIRGRPPRLPRPRPRPGRVPRP | 0.554
28 | RRIRGRPPRLPRPRPRPGRWPRP | 0.716
29 | RRIRGRPPRLPRPRPRPGWKPRP | 0.0657
30 | RRIRGRPPRLPRPRPRPGYTPRP | -0.0605
31 | RRIRGRPPRLPRPRPRPHAKPRP | 0.126
32 | RRIRGRPPRLPRPRPRPHCKPRP | 0.0392
33 | RRIRGRPPRLPRPRPRPHCMPRP | -0.207
34 | RRIRGRPPRLPRPRPRPHCNPRP | 0.427
35 | RRIRGRPPRLPRPRPRPHDNPRP | 0.174
36 | RRIRGRPPRLPRPRPRPHDRPRP | -0.0826
37 | RRIRGRPPRLPRPRPRPHGPPRP | 0.426
38 | RRIRGRPPRLPRPRPRPHHLPRP | 0.374
39 | RRIRGRPPRLPRPRPRPHIKPRP | -0.0279
40 | RRIRGRPPRLPRPRPRPHIWPRP | 0.00296
41 | RRIRGRPPRLPRPRPRPHKKPRP | -0.108
42 | RRIRGRPPRLPRPRPRPHMFPRP | 0.445
43 | RRIRGRPPRLPRPRPRPHMNPRP | 0.298
44 | RRIRGRPPRLPRPRPRPHMSPRP | 1.32
45 | RRIRGRPPRLPRPRPRPHMVPRP | -0.0598
46 | RRIRGRPPRLPRPRPRPHNLPRP | -0.262
47 | RRIRGRPPRLPRPRPRPHPGPRP | 0.421
48 | RRIRGRPPRLPRPRPRPHSDPRP | 0.204
49 | RRIRGRPPRLPRPRPRPHSMPRP | 0.0488
50 | RRIRGRPPRLPRPRPRPHVVPRP | 0.1

Row | Sequence | shrunken log2 fold change
51 | RRIRGRPPRLPRPRPRPHWPPRP | 2.63
52 | RRIRGRPPRLPRPRPRPHWTPRP | 0.00915
53 | RRIRGRPPRLPRPRPRPHYEPRP | -0.21
54 | RRIRGRPPRLPRPRPRPHYLPRP | -0.295
55 | RRIRGRPPRLPRPRPRPHYPPRP | -0.222
56 | RRIRGRPPRLPRPRPRPICNPRP | 0.645
57 | RRIRGRPPRLPRPRPRPIEAPRP | 0.377
58 | RRIRGRPPRLPRPRPRPIEEPRP | 0.235
59 | RRIRGRPPRLPRPRPRPIEKPRP | 0.942
60 | RRIRGRPPRLPRPRPRPIFCPRP | 0.333
61 | RRIRGRPPRLPRPRPRPIFIPRP | -0.0812
62 | RRIRGRPPRLPRPRPRPIFRPRP | 0.0691
63 | RRIRGRPPRLPRPRPRPIGCPRP | 0.0147
64 | RRIRGRPPRLPRPRPRPIGIPRP | -0.159
65 | RRIRGRPPRLPRPRPRPIGNPRP | -0.149
66 | RRIRGRPPRLPRPRPRPIGVPRP | -0.0542
67 | RRIRGRPPRLPRPRPRPIHHPRP | -0.0166
68 | RRIRGRPPRLPRPRPRPIILPRP | 0.197
69 | RRIRGRPPRLPRPRPRPILDPRP | 0.277
70 | RRIRGRPPRLPRPRPRPILQPRP | 0.621
71 | RRIRGRPPRLPRPRPRPILSPRP | 0.516
72 | RRIRGRPPRLPRPRPRPIRQPRP | -0.0411
73 | RRIRGRPPRLPRPRPRPIRWPRP | 0.577
74 | RRIRGRPPRLPRPRPRPISFPRP | 0.0122
75 | RRIRGRPPRLPRPRPRPITNPRP | 0.201

Row | Sequence | shrunken log2 fold change
76 | RRIRGRPPRLPRPRPRPITVPRP | -0.0412
77 | RRIRGRPPRLPRPRPRPIVGPRP | 0.00341
78 | RRIRGRPPRLPRPRPRPIVSPRP | 0.158
79 | RRIRGRPPRLPRPRPRPIWHPRP | 0.213
80 | RRIRGRPPRLPRPRPRPIYGPRP | -0.141
81 | RRIRGRPPRLPRPRPRPIYQPRP | 0.0644
82 | RRIRGRPPRLPRPRPRPKACPRP | 0.145
83 | RRIRGRPPRLPRPRPRPKDKPRP | 0.558
84 | RRIRGRPPRLPRPRPRPKELPRP | 0.247
85 | RRIRGRPPRLPRPRPRPKFNPRP | 0.353
86 | RRIRGRPPRLPRPRPRPKFPPRP | 0.251
87 | RRIRGRPPRLPRPRPRPKHDPRP | 0.466
88 | RRIRGRPPRLPRPRPRPKIIPRP | 0.303
89 | RRIRGRPPRLPRPRPRPKIMPRP | 0.322
90 | RRIRGRPPRLPRPRPRPKITPRP | 0.413
91 | RRIRGRPPRLPRPRPRPKKIPRP | 0.494
92 | RRIRGRPPRLPRPRPRPKLDPRP | 1.2
93 | RRIRGRPPRLPRPRPRPKLRPRP | 0.675
94 | RRIRGRPPRLPRPRPRPKMFPRP | 0.065
95 | RRIRGRPPRLPRPRPRPKMQPRP | 0.292
96 | RRIRGRPPRLPRPRPRPKPEPRP | 0.819
97 | RRIRGRPPRLPRPRPRPKQYPRP | 0.234
98 | RRIRGRPPRLPRPRPRPKRPPRP | 0.969
99 | RRIRGRPPRLPRPRPRPKRWPRP | 0.796
100 | RRIRGRPPRLPRPRPRPKSKPRP | 0.611

Row | Sequence | shrunken log2 fold change
101 | RRIRGRPPRLPRPRPRPKSNPRP | 0.446
102 | RRIRGRPPRLPRPRPRPKTYPRP | 0.23
103 | RRIRGRPPRLPRPRPRPKYGPRP | -0.111
104 | RRIRGRPPRLPRPRPRPKYLPRP | 0.32
105 | RRIRGRPPRLPRPRPRPKYMPRP | 0.104
106 | RRIRGRPPRLPRPRPRPLADPRP | 1.68
107 | RRIRGRPPRLPRPRPRPLDHPRP | 0.178
108 | RRIRGRPPRLPRPRPRPLDKPRP | 0.401
109 | RRIRGRPPRLPRPRPRPLDQPRP | 1.01
110 | RRIRGRPPRLPRPRPRPLEMPRP | 0.998
111 | RRIRGRPPRLPRPRPRPLGEPRP | 1.08
112 | RRIRGRPPRLPRPRPRPLGHPRP | 0.595
113 | RRIRGRPPRLPRPRPRPLGPPRP | 0.456
114 | RRIRGRPPRLPRPRPRPLKDPRP | 0.125
115 | RRIRGRPPRLPRPRPRPLKKPRP | 0.195
116 | RRIRGRPPRLPRPRPRPLLGPRP | 0.833
117 | RRIRGRPPRLPRPRPRPLMTPRP | 2.81
118 | RRIRGRPPRLPRPRPRPLNCPRP | -0.0116
119 | RRIRGRPPRLPRPRPRPLNYPRP | 0.131
120 | RRIRGRPPRLPRPRPRPLPCPRP | 0.51
121 | RRIRGRPPRLPRPRPRPLPIPRP | 0.0433
122 | RRIRGRPPRLPRPRPRPLPPPRP | 1.19
123 | RRIRGRPPRLPRPRPRPLQPPRP | 0.991
124 | RRIRGRPPRLPRPRPRPLQYPRP | -0.251
125 | RRIRGRPPRLPRPRPRPLRSPRP | 1.67

Row | Sequence | shrunken log2 fold change
126 | RRIRGRPPRLPRPRPRPLSEPRP | 0.52
127 | RRIRGRPPRLPRPRPRPLTLPRP | 0.275
128 | RRIRGRPPRLPRPRPRPLTQPRP | 0.594
129 | RRIRGRPPRLPRPRPRPLTRPRP | 0.803
130 | RRIRGRPPRLPRPRPRPLVMPRP | 0.263
131 | RRIRGRPPRLPRPRPRPLVTPRP | 1.2
132 | RRIRGRPPRLPRPRPRPLVVPRP | 0.39
133 | RRIRGRPPRLPRPRPRPLYIPRP | -0.321
134 | RRIRGRPPRLPRPRPRPLYPPRP | 0.162
135 | RRIRGRPPRLPRPRPRPMAQPRP | 1.07
136 | RRIRGRPPRLPRPRPRPMARPRP | 0.318
137 | RRIRGRPPRLPRPRPRPMCSPRP | 0.606
138 | RRIRGRPPRLPRPRPRPMDTPRP | 1.12
139 | RRIRGRPPRLPRPRPRPMELPRP | 0.271
140 | RRIRGRPPRLPRPRPRPMGAPRP | 0.821
141 | RRIRGRPPRLPRPRPRPMHCPRP | 0.0139
142 | RRIRGRPPRLPRPRPRPMHEPRP | 0.928
143 | RRIRGRPPRLPRPRPRPMHPPRP | -0.104
144 | RRIRGRPPRLPRPRPRPMHSPRP | 0.668
145 | RRIRGRPPRLPRPRPRPMMVPRP | 0.294
146 | RRIRGRPPRLPRPRPRPMMWPRP | 0.412
147 | RRIRGRPPRLPRPRPRPMNCPRP | 0.0167
148 | RRIRGRPPRLPRPRPRPMNFPRP | -0.0655
149 | RRIRGRPPRLPRPRPRPMPHPRP | 0.523
150 | RRIRGRPPRLPRPRPRPMRIPRP | 2.34
